The values below are quoted from earlier work in PMC8526019.

For orientation: Kd means the equilibrium constant for the complex coming apart.

In one data set the target is ATG3 (Homo sapiens) (UniProt Q9NT62).
Data set [1] has as its target Atg7 (Saccharomyces cerevisiae) (UniProt P38862).
For another data set, the target named is ATG14 (Homo sapiens) (UniProt Q6ZNE5).
Data set [2] addresses E-cadherin (Homo sapiens) (UniProt P12830).

UniProt Q6ZNE5, sequence (Q6ZNE5 whole entry): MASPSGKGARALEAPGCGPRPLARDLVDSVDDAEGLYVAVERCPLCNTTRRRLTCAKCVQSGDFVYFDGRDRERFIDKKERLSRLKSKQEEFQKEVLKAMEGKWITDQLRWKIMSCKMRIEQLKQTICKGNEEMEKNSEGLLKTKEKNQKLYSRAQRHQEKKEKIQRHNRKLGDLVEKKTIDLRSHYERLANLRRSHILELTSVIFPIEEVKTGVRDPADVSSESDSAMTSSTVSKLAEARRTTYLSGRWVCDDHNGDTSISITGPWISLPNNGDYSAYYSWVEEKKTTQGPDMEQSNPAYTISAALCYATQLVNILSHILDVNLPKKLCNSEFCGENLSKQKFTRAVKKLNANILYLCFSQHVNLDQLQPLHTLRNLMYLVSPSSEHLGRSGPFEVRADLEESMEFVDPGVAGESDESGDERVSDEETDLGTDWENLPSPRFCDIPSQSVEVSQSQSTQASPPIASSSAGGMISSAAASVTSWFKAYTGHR
UniProt Q9NT62, sequence (Q9NT62 whole entry): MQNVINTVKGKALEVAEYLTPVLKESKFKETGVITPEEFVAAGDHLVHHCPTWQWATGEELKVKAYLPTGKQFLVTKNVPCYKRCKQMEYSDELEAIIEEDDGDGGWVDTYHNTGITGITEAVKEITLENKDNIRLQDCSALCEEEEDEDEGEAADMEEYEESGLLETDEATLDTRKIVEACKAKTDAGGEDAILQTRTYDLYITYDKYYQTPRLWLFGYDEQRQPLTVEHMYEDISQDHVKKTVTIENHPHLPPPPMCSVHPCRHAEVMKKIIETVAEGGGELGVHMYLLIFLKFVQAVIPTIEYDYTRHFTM

As for ATG12 (from UniProt O94817), in the data set with ATG3 (Homo sapiens), the Kd was 50 nM.
On to Atg7 (from UniProt P38862), for which the Kd in data set [1] was 1 nM.
With BECN1 (from UniProt Q14457), the Kd with ATG14 (Homo sapiens) is 3200 nM.
On to E-cadherin (from UniProt P12830), for which the Kd in data set [2] was 160000 nM.
